Experimental data: PMC8145246 (Toxins, 2021)

B1: MazF-mt1 toxin (M. tb), purified protein (enzyme)
chain: MMRRGEIWQVDLDPARGSEANNQRPAVVVSNDRANATATRLGRGVITVVPVTSNIAKVYPFQVLLSATTTGLQVDCKAQAEQIRSIATERLLRPIGRVSAAELAQLDEALKLHLDLWS

Key:
[1] = target: B1; assay: crystal structure; conditions: both partners purified
[2] = target: the molecule itself; assay: crystal structure

Binder: TLEDDYANAWQEWSAAG [MazE-mt1 α3 peptide (Thr42-Gly58)]
- binding result [1]: binds

Binder: B1
- binding result [2]: binds
